Data reported in PMC8960284 (Cell Reports Methods, 2022).

Experiments:
Experiment in all cases: FRET or BRET
[1] = target: mutant Huntingtin exon1 (mHttex1) with a polyglutamine stretch of Q71, fused to mVenus-mCherry (Q71-VC)
[2] = target: mutant Huntingtin exon1 with 39 glutamines, fused to mVenus-mCherry (Q39-VC)
[3] = target: wild-type FUS tagged with mVenus-mCherry at the C terminus (FUS-VC) (UniProt P35637)
[4] = target: mutant Huntingtin exon1 with 54 glutamines, fused to mVenus-mCherry (Q54-VC)
FRET or BRET = target: the molecule itself

With “mutant Huntingtin exon1 (mHttex1) with a polyglutamine stretch of Q71, fused to mVenus-mCherry (Q71-VC) (domain or fragment)” the FRET/donor ratio in foci [1] was 1.3 to 1.4 and the FRET/donor ratio of the final foci [1] was 1.48.

In the case of “mutant Huntingtin exon1 with 39 glutamines, fused to mVenus-mCherry (Q39-VC) (domain or fragment)”, the FRET/donor ratio of the final foci [2] is reported as 1.6.

With “wild-type FUS tagged with mVenus-mCherry at the C terminus (FUS-VC) (from UniProt P35637 1-526) (natural protein)” the increase of FRET/donor ratio in foci over the dispersed state [3] was 0.06.

Molecule “mutant Huntingtin exon1 with 54 glutamines, fused to mVenus-mCherry (Q54-VC) (domain or fragment)” has an FRET/donor ratio of the final foci [4] of 1.53.

B1: FUS R521C tagged with mVenus-mCherry at the N terminus (VC-FUS_(R521C)) (natural protein)
chain: MASNDYTQQATQSYGAYPTQPGQGYSQQSSQPYGQQSYSGYSQSTDTSGYGQSSYSSYGQSQNTGYGTQSTPQGYGSTGGYGSSQSSQSSYGQQSSYPGYGQQPAPSSTSGSYGSSSQSSSYGQPQSGSYSQQPSYGGQQQSYGQQQSYNPPQGYGQQNQYNSSSGGGGGGGGGGNYGQDQSSMSSGGGSGGGYGNQDQSGGGGSGGYGQQDRGGRGRGGSGGGGGGGGGGYNRSSGGYEPRGRGGGRGGRGGMGGSDRGGFNKFGGPRDQGSRHDSEQDNSDNNTIFVQGLGENVTIESVADYFKQIGIIKTNKKTGQPMINLYTDRETGKLKGEATVSFDDPPSAKAAIDWFDGKEFSGNPIKVSFATRRADFNRGGGNGRGGRGRGGPMGRGGYGGGGSGGGGRGGFPSGGGGGGGQQRAGDWKCPNPTCENMNFSWRNECNQCKAPKPDGPGGGPGGSHMGGNYGDDRRGGRGGYDRGGYRGRGGDRGGFRGGRGGGDRGGFGPGKMDSRGEHRQDCRERPY
For B1, the “increase of FRET/donor ratio in foci over the dispersed state” value (FRET or BRET) was 0.15.
